# Reference: FireProtDB (doi:10.1093/protein/11.3.213)
# “And” between values parts separate entries of the source, which are not always exact repeats. Identical values can stand only once.
# B1: Endolysin, P03706 (parent)
# chain: MVEINNQRKAFLDMLAWSEGTDNGRQKTRNHGYDVIVGGELFTDYSDHPRKLVTLNPKLKSTGAGRYQLLSRWWDAYRKQLGLKDFSPKSQDAVALQQIKERGALPMIDRGDIRQAIDRCSNIWASLPGAGYGQFEHKADSLIAKFKEAGGTVREIDV
# Variants of: B1
# Conditions: Escherichia phage lambda; pH 4; Thermal; Fluorescence; phosphate 0.1 M; reversible: yes; structure 1AM7; whole UniProt chain shown
Variant,Tm,unfolding enthalpy (calorimetric),unfolding enthalpy (van 't Hoff)
H31N H137N,24.5 °C and 26 °C,169 kJ/mol and 181 kJ/mol,121 kJ/mol and 148 kJ/mol

# Same assay, conditions: Escherichia phage lambda; pH 4.5; Thermal; Fluorescence; phosphate 0.1 M; reversible: yes; structure 1AM7; whole UniProt chain shown
Variant,Tm [°C],unfolding enthalpy (calorimetric) [kJ/mol],unfolding enthalpy (van 't Hoff) [kJ/mol]
H31N H137N,39.3,292,297

# Same assay, conditions: Escherichia phage lambda; pH 5.5; Thermal; Fluorescence; phosphate 0.1 M; reversible: yes; structure 1AM7; whole UniProt chain shown
Variant,Tm [°C],unfolding enthalpy (calorimetric) [kJ/mol],unfolding enthalpy (van 't Hoff) [kJ/mol]
H31N H137N,51.1,391,448

# Same assay, conditions: Escherichia phage lambda; pH 6; Thermal; Fluorescence; phosphate 0.1 M; reversible: yes; structure 1AM7; whole UniProt chain shown
Variant,Tm [°C],unfolding enthalpy (calorimetric) [kJ/mol],unfolding enthalpy (van 't Hoff) [kJ/mol]
H31N H137N,52.7,405,389

# Same assay, conditions: Escherichia phage lambda; pH 6.5; Thermal; Fluorescence; phosphate 0.1 M; reversible: yes; structure 1AM7; whole UniProt chain shown
Variant,Tm [°C],unfolding enthalpy (calorimetric) [kJ/mol],unfolding enthalpy (van 't Hoff) [kJ/mol]
H31N H137N,53.6,412,464

# Same assay, conditions: Escherichia phage lambda; pH 6.57; Thermal; Fluorescence; phosphate 0.1 M; reversible: yes; structure 1AM7; whole UniProt chain shown
Variant,Tm [°C],unfolding enthalpy (calorimetric) [kJ/mol],unfolding enthalpy (van 't Hoff) [kJ/mol]
H31N H137N,50.8,389,418

# Same assay, conditions: Escherichia phage lambda; pH 7.07; Thermal; Fluorescence; phosphate 0.1 M; reversible: yes; structure 1AM7; whole UniProt chain shown
Variant,Tm [°C],unfolding enthalpy (calorimetric) [kJ/mol],unfolding enthalpy (van 't Hoff) [kJ/mol]
H31N H137N,51.1,391,439

# Same assay, conditions: Escherichia phage lambda; pH 7.57; Thermal; Fluorescence; phosphate 0.1 M; reversible: yes; structure 1AM7; whole UniProt chain shown
Variant,Tm [°C],unfolding enthalpy (calorimetric) [kJ/mol],unfolding enthalpy (van 't Hoff) [kJ/mol]
H31N H137N,51,390,423

# Same assay, conditions: Escherichia phage lambda; pH 8.07; Thermal; Fluorescence; phosphate 0.1 M; reversible: yes; structure 1AM7; whole UniProt chain shown
Variant,Tm [°C],unfolding enthalpy (calorimetric) [kJ/mol],unfolding enthalpy (van 't Hoff) [kJ/mol]
H31N H137N,50.1,383,381
